Reference: patent publication US20230303681A1 (published 2023)
Positions count from the first letter of the chain named. Values joined by “and” are separate entries in the source; they are usually repeats but may differ in a detail not shown here. Identical values can stand only once.

B1: anti-TMEM106B antibody TM-29 (antibody, V domains shown)
VH: QVQLRQSGAELVRPGASVKLSCKASGYTFTDYYINWVKQRPGQGLEWIARIYPGSGYTYYNEKFKGKATLTAEGSSNTAYMQLSSLTSEDSAVYFCANHYTNPFAYWGQGTLVTVSA
VL: DIVMTQAAFSNPVTLGTSASISCRSSKSLLHYNGITYLYWYLQKPGQSPQLLIYQMSNLASGVPDRFSSSGSGTDFTLRISRVEAEDVGVYYCAQNLELPYTFGGGTKLEIK
B2: anti-TMEM106B antibody TM-3 (antibody, V domains shown)
VH: QVTLKESGPGIVQPSQTLSLTCSFSGFSLNTLGRGVGWIRQPSGKGLEWLAKIWWNDDKFYYPALKSRLTISKDTSKNQIFLKIANVDTADSATYYCARIAGGTGAAYWGQGTTLTVSS
VL: B1 VL with Y32S, Y54S, N58S, S70G, Y91F, Y101W, I111L
B3: anti-TMEM106B antibody TM-23 (antibody, V domains shown)
VH: QVQLQQSGAELIRPGTSVKVSCKASGYAFTNYLIEWVKKRPGQGLEWIGVINPGSGITNYNEKFKGKATLTADKSSSTAYMQLSSLTSEDSAVYFCARSDFITTVVADYWGQGTTVTVSS
VL: DIVVTQTPLSLPVSFGDQVSISCRSSQSLTNYYGNTYLSWYLHKPGQSPQLLIYGISNRFSGVPDRFSGSGSGTDFTLKISTIKPEDLGMYYCLQGTHQPRTFGGGTKLEIK
B4: anti-TMEM106B antibody TM-26 (antibody, V domains shown)
VH: B3 VH
VL: B3 VL
B5: anti-TMEM106B antibody TM-13 (antibody, V domains shown)
VH: QVQLQQSGAELVKPGASVKMSCKASGYTFTTFPIEWMKQSHGKGLEWIGNFHPYNDDTKYNEKFKGKATLTVDKSSSTVYLDLSRLTSDDSAVYYCARYFYGGMDYWGQGTSVTVSS
VL: DIQMTQSPASLSVSVGETVTITCRASENIYSSLGWYQQKQGESPQLLVFAATNLADGVPSRFSGSGSGTQYSLKINSLQSEDFGTYYCQHLWSIPWTFGGGTRLEIK
B6: anti-TMEM106B antibody TM-25 (antibody, V domains shown)
VH: EVQLVESGGDLVKPGGSLRLSCAASGFTFSGYGMSWIRQTPDKRLEWVATISSGGRYTVYPDSVKGRFTMSRDNVKNTLYLQMSSLKSEDTALYYCARDNFYSYAMDYWGLGTSVTVSA
VL: DIVMTQAAFSNPVTLGTSASISCRSSKSLLHSNGITYLFWYLQKPGQSPQLLIYQMSNLASGVPDRFSSSGSGTDFTLRISRVEAEDVGVYYCAQNLELWTFGGGTKLEIK
B7: anti-TMEM106B antibody TM-28 (antibody, V domains shown)
VH: EVQLQQSGPVLVKPGPSVKISCMASVFTFNDYYIHWVKQSHGKSLEWIGLVYPYNGGTNYNQNFKGKATLTVDTSSRTAYMELNSLTSEDSAVYYCARSYFSNPIGYWGQGTLVTVSE
VL: DIVMTQSPSSLSVSVGEKVTVSCKSSQSLLNSGNQKNYLAWYQQKPGQPPKLLIYGASTRESGVPDRFTGSGSGTDFTLTISSVQAEDLAVYYCQNDHSYPLTFGAGTKLELK
B8: anti-TMEM106B antibody TM-27 (antibody, V domains shown)
VH: QVQLQQSGAELVRPGTSVKVSCKASGYALTNYLIEWVKQRPGQGLEWIGVINPGSGSTKYNEKFKGKATLTADKSSSTAYMQLSSLTSEDSAVYFCARIIYDHDWYFDVWGTGTTVTVSS
VL: QIVLTQSPAIMSASPGEKVTISCSASSSISYMYWYQQKPGSSPKPWIYRTSTLASGVPARFSGSGSGTSYSLTISSMEAEDAATYYCQQYHSYPRTFGGGTKLEIK

The binders below were run against T1, human TMEM106B (human, UniProt Q9NUM4 2-274) (assay: FACS A549).
T1 construct: Full-length, on transiently transfected HEK293 cells, or natively expressed on HeLa, U251 and A549 cells; also called huTMEM106B; huTMEM

| Binder | MFI |
| --- | --- |
| B1 | 1410 |
| B2 | 1800 |
| B3 | 1090 |
| B4 | 952 |
| B5 | 1260 |
| B6 | 1700 |
| B7 | 2000 |
| B8 | 1930 |

The binders below were run against T1, human TMEM106B (assay: FACS HeLa;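 further: flow cytometry of cells incubated with hybridoma supernatant or purified antibody at 10 µg/ml for 1 h on ice, propidium iodide–positive dead cells gated out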).

| Binder | MFI |
| --- | --- |
| B1 | 1650 |
| B2 | 2690 |
| B3 | 308 |
| B4 | 384 |
| B5 | 1380 |
| B6 | 2560 |
| B7 | 2790 |
| B8 | 2960 |

These binders were tested against T1, human TMEM106B (assay: FACS U251;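 further: flow cytometry of cells exposed to antibody (purified at 10 µg/mL, or hybridoma supernatant) for 1 h on ice, with propidium iodide-positive dead cells gated out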).
Method: All cells were cultured in either T75 or T150 flasks. […] The enzyme was quenched by addition of fresh media, and the cells were then distributed into 96-well plates for FACS analysis.
FACS analysis was performed as follows. Each cell type was aliquoted in 96-well round bottom plates (2x10^5 cells per well), washed once with FACS buffer (PBS + 2% FBS + 1 mM EDTA), and incubated with 50 µL of hybridoma supernatant or purified antibody (10 µg/ml in FACS buffer) on ice for 1 hour. […] Following this secondary incubation, the cells were again washed 2x with ice-cold FACS buffer and resuspended in a final volume of 50 µL of FACS buffer + 0.25 µl/well propidium iodide (Fisher Scientific # BDB556463). Analysis was performed on a FACSCanto system (BD Biosciences) or iQue (Intellicyt), with sort gates drawn to exclude dead (i.e., propidium iodide positive) cells.
Data is presented as mean fluorescence intensity (MFI).

| Binder | MFI |
| --- | --- |
| B1 | 730 |
| B2 | 1080 |
| B3 | 278 |
| B4 | 300 |
| B5 | 787 |
| B6 | 1110 |
| B7 | 998 |
| B8 | 1320 |

These binders were tested against T2, mouse TMEM106B (mouse, UniProt Q80X71 2-275) (assay: FACS Neuro2a;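 further: flow cytometry of cells stained with antibody or hybridoma supernatant (purified antibody at 10 µg/ml) for 1 h on ice, propidium iodide–positive dead cells gated out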).
T2 construct: on transiently transfected HEK293 cells, or natively expressed on mouse Neuro2a cells; also called moTMEM106B; murine TMEM106B

| Binder | MFI |
| --- | --- |
| B1 | 1480 |
| B2 | 1980 |
| B3 | 333 |
| B4 | 324 |
| B5 | 927 |
| B6 | 354 |
| B7 | 2740 |
| B8 | 1580 |

What follows are binders tested against T3, GST (Pierce) (UniProt P08515 1-218 = GST, limits assumed) (assay: ELISA, coated GST;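 further: ELISA on plates coated with GST alone at 1-10 µg/ml, antibodies applied at 100-1000x dilution, bound antibody detected by peroxidase substrate colour after acid stop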).
T3 construct: control for the GST part of the fusion protein; also called GST protein; Glutathione-S-transferase
Method: Briefly, 96-well polystyrene plates were coated with 1-10 µg/ml of recombinant GST-TMEM106B-truncated protein or GST (Pierce) in PBS either at 370 Cfor 1-4 hours or overnight at 4 °C. Coated plates were then blocked with 5% BSA for 1-hour, washed 3×150 µL in TBST (Tris-buffered saline + 0.1% Tween20), and then the antibodies were added at various dilutions (100-1000x) in PBS. After 1-hour incubation (room temperature, with shaking), the plates were washed 3x150 µL in TBST. […] After a final set of washes (3×150µL in TBST), 100 µL of peroxidase substrate was added for 1 minute; the reaction was then quenched with 2N sulfuric acid (100 µL).

| Binder | binding result |
| --- | --- |
| B1 | no binding |
| B2 | no binding |
| B3 | no binding |
| B4 | no binding |
| B5 | no binding |
| B6 | no binding |
| B7 | no binding |
| B8 | no binding |

Each binder was assayed against T1, human TMEM106B (assay: FACS A549, 1 ug/ml).
Method: Purified anti-TMEM106B antibodies were evaluated for their binding affinity to various TMEM106B-expressing cell lines including HEK293 transiently transfected with human/cyno/mouse TMEM106B, as well as HeLa cells and A549 cells. Antibodies tested for this experiment were mouse IgGs purified from hybridoma supernatant. Affinity binding to cells was determined as follows. Briefly, 1x10^5 cells were aliquoted per well in 96-well round bottom plates and incubated with 50 µL of purified anti-TMEM106B antibody at various concentrations (10x dilutions starting at 10 µg/ml) in FACS buffer (PBS + 2% FBS + 1 mM EDTA). […] Sorting was performed on a iQue (Intellicyt), with sort gates drawn to exclude dead (propidium iodide +) cells. Binding data was analyzed using median fluorescent intensity (MFI) and graphed in Prism. Values presented are MFI.

| Binder | MFI |
| --- | --- |
| B1 | 2480 |
| B2 | 4840 |
| B3 | 398 |
| B4 | 380 |
| B5 | 1950 |
| B6 | 4530 |
| B7 | 2630 |
| B8 | 431 |

What follows are binders tested against T1, human TMEM106B (assay: FACS A549, 10 ug/ml).

| Binder | MFI |
| --- | --- |
| B1 | 4200 |
| B2 | 7670 |
| B3 | 757 |
| B4 | 509 |
| B5 | 3890 |
| B6 | 7000 |
| B7 | 4350 |
| B8 | 622 |

What follows are binders tested against T1, human TMEM106B (assay: FACS, HEK293 transfectants;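 on fold over negative controls: hybridoma supernatants incubated 30 min on ice with human TMEM106B-expressing HEK293 cells, binding read as anti-mouse-APC median fluorescence on live cells, relative to secondary-antibody-only wells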;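 on fold-change over parental HEK293: flow cytometry binding of hybridoma supernatants to HEK293 cells transiently expressing human, cyno or mouse TMEM106B, read as anti-mouse-APC median fluorescence, live cells only, 30 min on ice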).

| Binder | fold over negative controls [fold] |
| --- | --- |
| B1 | > 2 |
| B2 | > 2 |
| B3 | > 2 |
| B4 | > 2 |
| B5 | > 2 |
| B6 | > 2 |
| B7 | > 2 |
| B8 | > 2 |

Each binder was assayed against T4, GST-fusion human TMEM106B truncated (human) (assay: array SPR, Ab immobilised;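 further: antibodies amine-coupled on an MX-96 chip, antigen flowed at 500 nM top concentration in 5-fold serial dilutions, GST alone run as nonspecific-binding control, duplicate measurements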).
T4 construct: also called GST-TMEM106B-truncated protein; GST-TMEM106B (truncated)
Method: Binding kinetic characterization of the purified antibodies was performed by Carterra using a proprietary array SPR instrument (MX-96) as follows. Briefly, antibodies were prepared by diluting to 5 µg/ml in 10 mM Acetate, pH 4.5 (Carterra), at 150 µL/well and then made an additional dilution at 1:10 from there by titrating 11 µl into 100 µL. […] The chip was activated with 18 mM EDC (Sigma Bioxtra) and 4.5 mM S-NHS (Thermo Fisher) diluted in 100 mM MES, pH 5.5, for 7 minutes, and then antibodies were coupled for 10 minutes at 45 µL/minute. After coupling, the chip was returned to the MX-96 and quenched for 7 minutes using 1 M Ethanolamine pH 8.5 (Carterra).
Printed antibodies were profiled for their ability to bind GST-TMEM106B (truncated) protein (described above). Briefly, GST-TMEM106B (truncated) antigen was diluted to 18 µg/ml (500 nM of 36 kDa fusion protein) by mixing 2.7 µL of 2.0 mg/ml antigen into 298 µL Running buffer (HBS-EP+, Teknova with 1 mg/ml BSA, Sigma), and titrated 50 µl into 200 µl for 5-fold serial dilutions. In addition, binding to GST (Pierce) was assayed under the same conditions to determine the extent of any nonspecific binding of the anti-TMEM106B antibodies to GST portion of the TMEM106B-GST fusion protein. Duplicate measurements for each anti-TMEM106B antibody were taken to ensure reproducibility.

| Binder | Kd | koff | kon |
| --- | --- | --- | --- |
| B1 | 3.5 nM and 5.2 nM | 6.5e-05 s⁻¹ and 7.8e-05 s⁻¹ | 18000 M⁻¹ s⁻¹ and 15000 M⁻¹ s⁻¹ |
| B2 | 1.7 nM and 2.1 nM | 3.8e-05 s⁻¹ and 4.8e-05 s⁻¹ | 22000 M⁻¹ s⁻¹ and 23000 M⁻¹ s⁻¹ |
| B3 | 12 nM and 26 nM | 0.00045 s⁻¹ and 0.001 s⁻¹ | 36000 M⁻¹ s⁻¹ and 41000 M⁻¹ s⁻¹ |
| B4 | 12 nM and 19 nM | 0.00041 s⁻¹ and 0.00085 s⁻¹ | 34000 M⁻¹ s⁻¹ and 45000 M⁻¹ s⁻¹ |
| B5 | 2.4 nM and 2 nM | 7e-05 s⁻¹ and 8.4e-05 s⁻¹ | 29000 M⁻¹ s⁻¹ and 42000 M⁻¹ s⁻¹ |
| B6 | 1.5 nM and 2.6 nM | 3.3e-05 s⁻¹ and 5.8e-05 s⁻¹ | 22000 M⁻¹ s⁻¹ |
| B7 | 5.3 nM | 7.2e-05 s⁻¹ | 14000 M⁻¹ s⁻¹ |
| B8 | 16 nM and 18 nM | 0.00048 s⁻¹ and 0.00068 s⁻¹ | 31000 M⁻¹ s⁻¹ and 39000 M⁻¹ s⁻¹ |

These binders were tested against T1, human TMEM106B (assay: FACS HEK+huTMEM, 10 ug/ml;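 further: purified mouse IgG antibodies at 10 µg/ml bound to HEK293 cells transiently expressing human TMEM106B, measured by flow cytometry as median fluorescence intensity of propidium iodide negative live cells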).

| Binder | MFI |
| --- | --- |
| B1 | 61200 |
| B2 | 82300 |
| B3 | 12400 |
| B4 | 3850 |
| B5 | 67500 |
| B6 | 60300 |
| B7 | 64800 |
| B8 | 4140 |

Target: T1, human TMEM106B
Test: FACS, HEK293 transfectants;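 further: flow cytometry binding of hybridoma supernatants to HEK293 cells transiently expressing human, cyno or mouse TMEM106B, read as anti-mouse-APC median fluorescence, live cells only, 30 min on ice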
Remark: another data set of the same source

| Binder | fold-change over parental HEK293 [fold] |
| --- | --- |
| B1 | 35.1 |
| B2 | 24.4 |
| B3 | 7.09 |
| B4 | 11.8 |
| B5 | 36.7 |
| B6 | 13 |
| B7 | 19.7 |
| B8 | 7.62 |

The binders below were run against T5, cynomolgus (cyno) TMEM106B (cynomolgus, UniProt Q9NUM4 2-274 (human entry)) (assay: FACS, HEK293 transfectants;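 further: flow cytometry binding of hybridoma supernatants to HEK293 cells transiently expressing human, cyno or mouse TMEM106B, read as anti-mouse-APC median fluorescence, live cells only, 30 min on ice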).
T5 construct: on transiently transfected HEK293 cells

| Binder | fold-change over parental HEK293 [fold] |
| --- | --- |
| B1 | 66 |
| B2 | 40.5 |
| B3 | 12.2 |
| B4 | 18 |
| B5 | 55.5 |
| B6 | 21.4 |
| B7 | 33.7 |
| B8 | 13.5 |

Each binder was assayed against T2, mouse TMEM106B (assay: FACS, HEK293 transfectants;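 further: flow cytometry binding of hybridoma supernatants to HEK293 cells transiently expressing human, cyno or mouse TMEM106B, read as anti-mouse-APC median fluorescence, live cells only, 30 min on ice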).

| Binder | fold-change over parental HEK293 [fold] |
| --- | --- |
| B1 | 44.6 |
| B2 | 29.2 |
| B3 | 4.46 |
| B4 | 6.54 |
| B5 | 52.7 |
| B6 | 2.87 |
| B7 | 22.1 |
| B8 | 3.32 |

Each binder was assayed against T1, human TMEM106B (assay: FACS HEK+huTMEM, 0.1 ug/ml;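 further: flow cytometry binding of purified mouse IgG antibodies to HEK293 cells transiently expressing TMEM106B, read as median fluorescence intensity with propidium iodide positive dead cells gated out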).

| Binder | MFI |
| --- | --- |
| B1 | 24400 |
| B2 | 48700 |
| B3 | 2410 |
| B4 | 1960 |
| B5 | 19100 |
| B6 | 32800 |
| B7 | 19800 |
| B8 | 1700 |

What follows are binders tested against T1, human TMEM106B (assay: FACS HEK+huTMEM, 1.0 ug/ml).

| Binder | MFI |
| --- | --- |
| B1 | 63300 |
| B2 | 89100 |
| B3 | 3900 |
| B4 | 3340 |
| B5 | 67100 |
| B6 | 64700 |
| B7 | 66400 |
| B8 | 3040 |

Each binder was assayed against T1, human TMEM106B (assay: FACS HEK+huTMEM, 0.01 ug/ml).

| Binder | MFI |
| --- | --- |
| B1 | 4050 |
| B2 | 7700 |
| B3 | 1100 |
| B4 | 1000 |
| B5 | 2900 |
| B6 | 4310 |
| B7 | 3340 |
| B8 | 744 |
